Results from US20220363752A1 (VERSEAU THERAPEUTICS, published 2022).
Primed or numbered codes have the meaning given here. Biotin′ = not defined here

T1: LRRC25(96-115) biotin peptide (human, not fully specified; N-terminal acetyl; C-terminal GGK-Biotin; native Cys changed to Ser)
T1 construct: also called Biotin LRRC25 (96-115) peptide
T1 peptide: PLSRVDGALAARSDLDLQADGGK

T2: LRRC25(141-159) biotin peptide (human, not fully specified; N-terminal acetyl; C-terminal GGK-Biotin; native Cys changed to Ser)
T2 peptide: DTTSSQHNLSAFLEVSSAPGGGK

T3: LRRC25(36-55) biotin peptide (human, not fully specified; N-terminal NH2; C-terminal GGK-Biotin; native Cys changed to Ser)
T3 peptide: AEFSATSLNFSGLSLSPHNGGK

T4: LRRC25(81-100) biotin peptide (human, not fully specified; N-terminal acetyl; C-terminal GGK-Biotin)
T4 peptide: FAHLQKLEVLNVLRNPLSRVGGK

T5: LRRC25(51-69) biotin peptide (human, not fully specified; N-terminal acetyl; C-terminal GGK-Biotin)
T5 peptide: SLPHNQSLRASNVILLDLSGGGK

T6: LRRC25(111-130) biotin peptide (human, not fully specified; N-terminal acetyl; C-terminal GGK-Biotin; native Cys changed to Ser)
T6 peptide: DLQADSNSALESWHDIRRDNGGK

T7: LRRC25(150-165) biotin peptide (human)
T7 peptide: Ac-SAFLEVSSAPGLASATGG-{Biotin′}

T8: LRRC25(66-85) biotin peptide (human, not fully specified; N-terminal acetyl; C-terminal GGK-Biotin)
T8 peptide: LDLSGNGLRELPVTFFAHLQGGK

T9: LRRC25(21-40) biotin peptide (human, not fully specified; N-terminal NH2; C-terminal GGK-Biotin; native Cys changed to Ser)
T9 peptide: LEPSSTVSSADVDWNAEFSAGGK

T10: LRRC25(126-145) biotin peptide (human, not fully specified; N-terminal acetyl; C-terminal GGK-Biotin; native Cys changed to Ser)
T10 peptide: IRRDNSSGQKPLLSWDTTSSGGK


How the values were obtained:
[1] = biological target: T1, LRRC25(96-115) biotin peptide; test: ELISA, 20 nM antibody, biotinylated antigen on streptavidin plate
Method in brief: (§1)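 Plate-bound streptavidin captured biotinylated 16- to 20-mer LRRC25 ECD overlapping peptides (2 ug/mL), with biotinylated human LRRC25-His as positive control. Chimeric anti-LRRC25 antibodies at 20 nM, 45 min at 37° C in duplicate; detection by HRP anti-human IgG and TMB at A450 nm.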

[2] = biological target: T11, biotinylated human LRRC25-His protein (human, UniProt Q8N386 21-165, biotinylated (sites not given)); test: as above
T11 construct: also called Biotin LRRC25-His; biotinylated LRRC25 protein
Method in brief: as §1

[3] = biological target: T12, His-tagged human LRRC25 extracellular domain protein, human LRRC25-His (human, UniProt Q8N386 21-165); test: ELISA, antibody titrated on plate-immobilized Human LRRC25(ECD)-His, A450nm against -log [IgG] (M), left panel
T12 construct: The entry holds the extracellular domain, a GSG linker and the His tag; also called LRRC25(ECD)-HIS
Protocol: To establish the relative binding strengths of anti-LRRC25 antibodies against human LRRC25, and their cross-reactivity with cynomolgus monkey LRRC25, antibody binding curve analyses were performed and EC50 values against plate-immobilized recombinant human and cyno LRRC25 proteins were determined.
A typical ELISA was performed by coating overnight in PBS, pH 7.4, at 4° C. in high binding microtiter wells with 1 ug/mL/100 ul per well of human LRRC25-His or cyno LRRC25-His. An anti-human LRRC25 antibody (2A3, LS Bio, LS-C174039-100) and anti-HIS-HRP (Miltenyi Biotec; 130-092-783) served as coating controls for the human and cyno LRRC25 proteins, respectively. […] Anti-LRRC25 antibodies were added (100 ul per well) at 500 nM and serially diluted 3-fold in assay buffer (1% skimmed milk in PBS, pH 7.4). The plate was incubated with gentle agitation for 1 h at room temperature. The plate was washed 3× and HRP-conjugated secondary antibody in assay buffer added [100 ul per well; goat anti-human IgG (Jackson Immunoresearch, cat #715-035-150)], and the plate was incubated as before. Antibody bound to plate-immobilized LRRC25(ECD)-HIS was determined at A450 nm using HRP substrate (3,3′,5,5′-tetramethylbenzidine (TMB); eBioscience; 00-4201-56); 100 μl/well).

[4] = biological target: T13, His-tagged cynomolgus monkey LRRC25 extracellular domain protein, cyno LRRC25-His (cynomolgus monkey); test: ELISA, plate-immobilized antigen
T13 construct: The entry holds the extracellular domain, a GSG linker and the His tag
Method in brief: (§2)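 Wells coated overnight at 4 °C with 1 ug/mL antigen in PBS pH 7.4. Antibodies titrated from 500 nM in 3-fold steps in 1% skimmed milk/PBS, 1 h at room temperature, then HRP anti-human IgG; TMB read at A450 nm and EC50 taken from binding curves.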

[5] = biological target: T12, His-tagged human LRRC25 extracellular …; test: ELISA, plate-immobilized antigen
Method in brief: as §2

[6] = biological target: T2, LRRC25(141-159) biotin peptide; test: peptide ELISA
Method in brief: as §1

[7] = biological target: T3, LRRC25(36-55) biotin peptide; test: peptide ELISA
Method in brief: as §1

[8] = biological target: T4, LRRC25(81-100) biotin peptide; test: peptide ELISA
Method in brief: as §1

[9] = biological target: T5, LRRC25(51-69) biotin peptide; test: peptide ELISA
Method in brief: as §1

[10] = biological target: T6, LRRC25(111-130) biotin peptide; test: peptide ELISA
Method in brief: as §1

[11] = biological target: T7, LRRC25(150-165) biotin peptide; test: peptide ELISA
Method in brief: as §1

[12] = biological target: T8, LRRC25(66-85) biotin peptide; test: peptide ELISA
Method in brief: as §1

[13] = biological target: T9, LRRC25(21-40) biotin peptide; test: peptide ELISA
Method in brief: as §1

[14] = biological target: T10, LRRC25(126-145) biotin peptide; test: peptide ELISA
Method in brief: as §1

[15] = biological target: T1, LRRC25(96-115) biotin peptide; test: peptide ELISA
Method in brief: as §1

T13 sequence (chain, as listed by the source limits assumed): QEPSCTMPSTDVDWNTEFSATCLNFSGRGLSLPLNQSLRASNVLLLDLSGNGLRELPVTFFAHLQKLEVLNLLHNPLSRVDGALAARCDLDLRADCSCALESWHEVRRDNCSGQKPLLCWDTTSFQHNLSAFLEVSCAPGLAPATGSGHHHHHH
T11 sequence (Q8N386 other isoform, or with tags, fused parts or gaps): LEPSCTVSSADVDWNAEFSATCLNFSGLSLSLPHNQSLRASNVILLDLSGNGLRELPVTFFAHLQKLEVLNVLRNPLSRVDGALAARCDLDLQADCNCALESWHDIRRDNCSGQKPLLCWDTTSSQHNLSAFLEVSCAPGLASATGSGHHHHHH
T12 sequence (Q8N386 other isoform, or with tags, fused parts or gaps): as above

absorbance (A450) [1] [A450]	absorbance (A450) [2] [A450]	EC50 (read off the curve) [3] [nM]	EC50 [4] [nM]	EC50 [5] [nM]	binding result [6]	binding result [7]	binding result [8]	binding result [9]	binding result [10]	binding result [11]	binding result [12]	binding result [13]	binding result [14]	binding result [15]	Binder
2.56	1.7	~1	83.2	1.3	no binding (tested: 20 nM)	no binding (tested: 20 nM)	no binding (tested: 20 nM)	no binding (tested: 20 nM)	no binding (tested: 20 nM)	no binding (tested: 20 nM)	no binding (tested: 20 nM)	no binding (tested: 20 nM)	no binding (tested: 20 nM)	–	anti-LRRC25 chimeric antibody 1E01 (antibody, human IgG4, V domains shown, also called mAb 1E01) VH: DVQLVESGGGLVKPGGSLKLSCAASGFTFSNYAMSWVRQTPEKRLEWVASISRGGNTYYPDSVKGRFTISRDNARNILYLQMSSLRSEDTAIYYCTRGNYGSSLFAYWGQGTLVTVSA VL: DIVLTQSPASLTVSLGQRATISCRASKSVSTSGYSYMHWYQQKPGQPPKLLIYLASNLESGVPARFSGSGSRTDFTLTIDPVEADDAATYYCQQNNEDPWTFGGGTKLEIKR
0.134	0.714	–	~200	16.1	no binding (tested: 20 nM)	no binding (tested: 20 nM)	no binding (tested: 20 nM)	no binding (tested: 20 nM)	no binding (tested: 20 nM)	no binding (tested: 20 nM)	no binding (tested: 20 nM)	no binding (tested: 20 nM)	no binding (tested: 20 nM)	no binding (tested: 20 nM)	anti-LRRC25 chimeric antibody 3C07 (antibody, human IgG4, V domains shown) VH: EVKLDESGGGLVKPGGSLKLSCAASGFTFSRYAMSWVRQTPEKRLEWVASISRGGSTYYPDSVKGRFTISRDIARDILYLQMSSLRSEDTAMYYCARGNYGSSLFAYWGQGTLVTVSA VL: DIVMTQAAFSNPVTLGTSASISCRSSKSLLHSNGITYLYWYLQKPGQSPQLLIYQMSNLASGVPDRFSSSGSGTDFTLRISRVEAEDVGVYYCAQNLELPWTFGGGTKLEIKR
0.054	2.6	–	0.65	0.39	no binding (tested: 20 nM)	no binding (tested: 20 nM)	no binding (tested: 20 nM)	no binding (tested: 20 nM)	no binding (tested: 20 nM)	no binding (tested: 20 nM)	no binding (tested: 20 nM)	no binding (tested: 20 nM)	no binding (tested: 20 nM)	no binding (tested: 20 nM)	anti-LRRC25 chimeric antibody 2C07 (antibody, human IgG4, V domains shown) VH: QITLKESGPGILQPSQTLSLTCSFSGFSLTTSGMGVSWIRQPSGKGLEWLAHIYWDDDKRYNPSLRSRLTISKDTSSNQVVLKLTNVDTADTATYYCARRARDYYNSGHWYFDVWGAGTTVTVSS VL: DVVMTQTPKSMSMSVGERVTLSCKASENVGTYVSWYQQKPDQSPKLLIFGASNRYTGVPDRFTGSGSATDFTLTISSVQAEDLADYHCGQTYSFPFTFGSGTKLEIKR
0.049	2.39	–	1.4	2	no binding (tested: 20 nM)	no binding (tested: 20 nM)	no binding (tested: 20 nM)	no binding (tested: 20 nM)	no binding (tested: 20 nM)	no binding (tested: 20 nM)	no binding (tested: 20 nM)	no binding (tested: 20 nM)	no binding (tested: 20 nM)	no binding (tested: 20 nM)	anti-LRRC25 chimeric antibody 2C08 (antibody, human IgG4, V domains shown) VH: QVTLKESGPGILQPSQTLSLTCSFSGFSLSTSGMGVSWIRQPSGKGLEWLAHIYWDDDKRYNPSLKSRLTLSKDTSSNQVFLKITSVDTADTATYYCARRPRDYYGGGHWYFDVWGAGTTVTVSS VL: DIVMTQSPKSMSMSVGERVTLTCKASENVGTYVSWYQQKAEQSPKLLIYGASNRYTGVPDRFTGSGSATDFTLTISNVQTEDLADYHCGQSYSYPFTFGSGTKLEIKR
0.052	2.44	–	4.6	0.63	no binding (tested: 20 nM)	no binding (tested: 20 nM)	no binding (tested: 20 nM)	no binding (tested: 20 nM)	no binding (tested: 20 nM)	no binding (tested: 20 nM)	no binding (tested: 20 nM)	no binding (tested: 20 nM)	no binding (tested: 20 nM)	no binding (tested: 20 nM)	anti-LRRC25 chimeric antibody 2A07 (antibody, human IgG4, V domains shown) VH: EVKLDESGGGLVQPGGSLKLSCATSGFTFSDYYMYWVRQTPEKRLEWVAYISNGGGSTYYPDTVKGRFTISRDNAKNTLYLQMSRLKSEDTAMYYCARSTAVSQMDYWGQGTSVTVSS VL: DIVLTQSPAIMSASPGEKVTLTCSASSSVRSSYLNWYQQKPGSSPKLWIHGTSNLASGVPARFSGSGSGTSYSLTISSMEAEDAASYFCHQWSSYPPTFGAGTKLELKR
